From paper PMC4949324

Assays:
C1 WT (ZF10-13) = target: T1, C1 WT (ZF10-13) (mouse, UniProt A2A5K6 845-1337); assay: quantitative EMSA
T1 sequence: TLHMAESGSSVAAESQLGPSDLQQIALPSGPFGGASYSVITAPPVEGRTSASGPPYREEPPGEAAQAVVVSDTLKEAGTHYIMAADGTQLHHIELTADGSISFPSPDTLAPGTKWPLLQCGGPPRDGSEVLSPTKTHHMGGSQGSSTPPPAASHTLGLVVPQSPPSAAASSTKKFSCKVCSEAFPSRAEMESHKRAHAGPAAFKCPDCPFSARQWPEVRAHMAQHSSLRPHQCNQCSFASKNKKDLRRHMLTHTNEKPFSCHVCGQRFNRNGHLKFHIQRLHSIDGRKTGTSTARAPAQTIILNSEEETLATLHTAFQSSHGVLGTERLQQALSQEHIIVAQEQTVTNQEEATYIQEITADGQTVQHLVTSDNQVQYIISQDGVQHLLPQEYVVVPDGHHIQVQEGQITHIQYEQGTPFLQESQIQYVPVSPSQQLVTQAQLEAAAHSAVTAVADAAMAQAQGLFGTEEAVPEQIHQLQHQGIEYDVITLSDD

C1 R1092W (ZF10-13) = target: T2, C1 R1092W (ZF10-13) (mouse, UniProt A2A5K6 845-1337, R1092W); assay: quantitative EMSA
T2 sequence: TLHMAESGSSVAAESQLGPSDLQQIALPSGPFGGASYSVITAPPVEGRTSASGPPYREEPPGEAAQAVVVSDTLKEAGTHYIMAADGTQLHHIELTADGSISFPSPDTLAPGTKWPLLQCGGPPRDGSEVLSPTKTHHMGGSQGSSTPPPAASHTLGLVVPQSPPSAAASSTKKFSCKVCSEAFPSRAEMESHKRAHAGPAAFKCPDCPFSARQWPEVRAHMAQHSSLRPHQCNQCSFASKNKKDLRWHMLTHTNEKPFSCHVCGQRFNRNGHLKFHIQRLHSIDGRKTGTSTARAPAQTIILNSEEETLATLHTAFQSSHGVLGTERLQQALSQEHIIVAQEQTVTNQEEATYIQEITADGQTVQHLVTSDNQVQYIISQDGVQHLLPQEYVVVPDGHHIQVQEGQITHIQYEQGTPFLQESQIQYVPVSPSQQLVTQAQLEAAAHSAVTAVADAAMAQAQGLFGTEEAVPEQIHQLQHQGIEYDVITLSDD

B1: A2 (dsDNA)
DNA 1: AGTCCGACTCAGGACCCCGACCAAGCTG
DNA 2: CAGCTTGGTCGGGGTCCTGAGTCGGACT
**Q.** Which Kd (C1 WT (ZF10-13)) does the source give for B1 here?
**A.** The Kd was 73.4 ± 7.1 nM.

**Q.** And the Kd (C1 R1092W (ZF10-13))?
**A.** Its Kd is 1410 ± 117 nM.
